Test results taken from the supplement of paper PMC12042874.
± gives the uncertainty stated by the source.

Assay: amyloid nucleation score (Sup35N fusion, yeast selection) (log enrichment); library NNK3; higher = more nucleation; inactive = no reads after selection
Summary of the method: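 After 24 hours of induction with 100 μM copper sulfate, psi-negative yeast expressing peptides of 20 random codons fused to Sup35N were grown for 7 days at 30°C on medium lacking adenine and uracil. Input and output plasmid inserts were sequenced with Illumina, and sequences with under 100 input reads were discarded. Scores for nucleation are the DiMSum log enrichment of output over input reads, centred on the mode score of non-aggregating sequences.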

Substance | amyloid nucleation score
LMSYSRFGCSDSYLNVDSSA | inactive
DGAEDCRS | -1.03 ± 2.5
LVLMCIIARIAVVYKR | inactive
TNNCCNLLCMIQNPESCSFA | 3.12 ± 0.065
ILVKIRNRCLEVE | -0.32 ± 1.1
GAVRMVETTMYFLFTMPSGS | 0.359 ± 0.24
IIRALARFLVNVGV | inactive
SMQRNSQFLLAQYTDPGGN | inactive
YVRSYLILS | inactive
FMRDIKLTGGCGVNCAHLHA | inactive
RDIQYLCKYLRSMMHRGQAH | inactive
WLSGACEPPF | 0.718 ± 0.28
FCLNYDGGWWCRMSCVYNQG | inactive
MISICCGIPCLFIFWFRASA | inactive
NSGYVYGIQCNVWVLAFMGF | 2.7 ± 0.068
RYNWVYDFVLNRSSYWCW | inactive
TMKGTSKVSLLVSSGASRMG | inactive
VFFVQCNHWNGMVNVFAM | 2.9 ± 0.057
FNAKFFSQNMSVWCGVFM | 2.6 ± 0.078
KTLIVVAVSFIWL | 0.887 ± 0.19
TKYAHPPTQDDPLCGIRRSV | inactive
GVKTHGIAVMKVGLRRLCQG | inactive
IKSHVAIDSVPER | inactive
EVKSDVMKLFNCVFSCPLTF | 2.38 ± 0.073

Substance | amyloid nucleation score
YTVSFYIQLCTDRQISHRGI | 2.34 ± 0.071
MRKLDPFNSKP | inactive
YFQGWSMVCSDVSTGKSVVM | inactive
HCQQGS | inactive
SAYAGYKRLGASEVILLSPY | inactive
NLWTTGIRTSPKNLYIVAFM | inactive
RKCRCYLTSFKDPALYLT | inactive
SDLYTIGVVPTLTFINAPCI | inactive
HPLDYTVGSVVMGV | inactive
KYGENDLRFENITYLFGV | inactive
GCNRVIYKRI | -0.609 ± 1.2
YFGNSGWDHGWPVVHKMSFS | inactive
YWVCPIGFFNCWLNRMTRLM | 1.59 ± 0.12
SCEFYDSVLWSYFKMAMFAL | -0.698 ± 0.8
EQKGKQFEVSVDSYSTWEVG | inactive
IFSNRGFQLCWFSYMLSVHT | inactive
HASMQFWKVDNSFNALMRLG | 0.398 ± 0.18
FMINSNNRFGISRRTLMSLT | inactive
FVCFIKLRLVDSRIVTNFQR | inactive
CHCIYNQCVGFSVCGCRGFG | 2.35 ± 0.058
LLLVSLELTRLNSHEWVYVI | inactive
FSRGVCTSYLSVRYGLCSTE | inactive
MIKMAIRNLGYCSDYRTLCR | inactive
RRWQVCVAGQDSEGTVKVML | 0.108 ± 0.56

Substance | amyloid nucleation score
LNVYNWKN | inactive
SVMLDNTVVFTIRSGHCSES | 1.13 ± 0.1
AWMCIHLYICCMILCGRRGW | inactive
IEVQFENFSCSR | inactive
QDPMLTCGGRWDFTCAGEVP | inactive
YLLCGYRGATFRKHEVWGEG | -0.059 ± 0.78
REMKWRLELLVGGKYRYHQL | inactive
CNNNLGVVFPRFWSIFAKGC | inactive
HIWVCHWRYYVIMLPRSAWI | inactive
PFPGRTLKWNLYTSQFFMAG | inactive
ALVCYK | inactive
VFGMKSRDIRIS | inactive
YEMMCQYVYECWYIIDARRM | 0.06 ± 0.23
NTHNNIGGRYAKYGWLMRSK | inactive
WFFTLCSSDQVSRGMR | inactive
DDGSKCLLSSMMFVNLVTYC | inactive
KSTRF | inactive
ICRQS | inactive
EFFAPSVTDQMLTFRLLYKT | 0.821 ± 0.26
RKFAGYQSSNASGSPVQGMS | inactive
GTYLKNF | inactive
NNLMLV | inactive
LCITPNLKSFFESYVRFSEL | inactive
NMTHLFMVCAKVSMPSGDGG | inactive

Substance | amyloid nucleation score
QLALPHKPHWGNWL | inactive
FRKTGFSFVFLIVDEYFICN | inactive
DIRYLISSTRYLDVMEGFLV | inactive
HNRLEAMFY | inactive
IIPRIALPVCFVPYGLRRSS | inactive
NSYFKPVKSCNLQLGEVTLQ | inactive
FLFVCLSLIALTGADSLVQA | inactive
LVEMNFLAVINRFICSSSLP | inactive
GMFRDHAYADCRGLTY | inactive
DLVRAMRCHSVGDVGYASSS | inactive
LETLVKPLELGSYFDFCCWA | inactive
LLFVVQWWFNRFFE | inactive
SLVPDNAANAMRPTWINLWW | 1.84 ± 0.078
GGVTFYMYCIRLVNDQQGHR | 1.21 ± 0.098
RSILRNSLSTQMHIGSVSLM | inactive
PFGPHYNPTM | inactive
QVLWTGEMDSMICWA | inactive
FNIYCVGPNYATRGAGWVLL | 1.78 ± 0.095
GVLTTALVGTCWPSTCFYGL | inactive
RWVKSKFAV | inactive
FDLVFLLYMGMTQ | inactive
FGLYYRLPNNCNKTGNQFTV | inactive
WKFINDIASN | inactive
AFLSMSGNLLVVYSGEGGSP | -0.027 ± 0.35

Substance | amyloid nucleation score
VCYLFWDVWVFLGEVTANT | inactive
ILQCGS | inactive
VHHLLELEQVHNKDGTF | inactive
TNLMLSLE | inactive
LCAQGYDLFALCKVYWLREW | inactive
NTAYHKRRGW | -0.004 ± 0.71
SLLLLSGFEVSSKR | inactive
CCIYQHIFYMRTYCIRT | inactive
IVKRFHYYMSVRKLMSKFGL | inactive
YGGDSNRIRVRLFKMKTLNL | inactive
LEFRNHPMSYYTLVGQCVRK | -0.372 ± 0.8
YFMVEVMLILMSDGAFYTFC | inactive
SVRFDDAMIDGITSAYMIKY | inactive
ENERM | inactive
VNIWLPKTPLQLKLNLPSSM | -0.829 ± 1.1
DENVRLTL | inactive
SNEGE | inactive
TLNVFVNN | 2.26 ± 0.056
VKDNFRFSLNRPMKRHVVWA | inactive
LTRLLGDLIPPVNMGARECD | inactive
ISIFRRTGFAWFWENV | inactive
